Measured values: patent publication US20230218776A1, “ANTI-NTB-A ANTIBODIES AND RELATED COMPOSITIONS AND METHODS” (SEAGEN INC., priority 2015, published 2023)
Entries after “also recorded” stand apart in the source; their conditions may differ. Where two headings read alike, the source gives them in different places. Where a SMILES comes first, the peptide text is derived from it. [ ]: non-standard residue; d: D form. The star is where a group is joined. Dolaproine = CO[C@@H]([C@@H]1CCCN1)[C@@H](C)C(=O)O; Dil = CC[C@H](C)[C@H](NC)[C@@H](CC(=O)O)OC; X1 = C[C@@H](N*)[C@@H](O)c1ccccc1; NMeV = CN[C@H](C(=O)O)C(C)C

Legend:
[1] = test system: resting human B lymphocytes; test: Cytotoxicity on resting human lymphocytes, Cell-Titer Glo, 96 hours; type: cell-based; conditions: for IC50: 96 hours; for ADC concentration with cytotoxic effect on resting B lymphocytes: resting human B lymphocytes, 96 hour cytotoxicity assay
Experimental: (§1) To assess the cytotoxic effects of anti-NTB-A ADCs on resting human T and B lymphocytes, purified cells were seeded into black 96-well assay plates. Cells were then treated with anti-NTB-A ADCs starting at 10 ug/mL titrated down 5-fold for a total of 8 dilution points. For free drug treatment, cells were dosed with either MMAE starting at 1,000 nM or free PBD dimer starting at 100 nM titrated down 5-fold for a total of 8 dilution points. Plates were incubated at 37° C., 5% CO2 for 96 hours then allowed to equilibrate to room temperature. An equal volume of Cell-Titer Glo reagent was added to each well and the plate was incubated an additional 30 minutes at room temperature. Plates were then read on a Perkin Elmer Envision plate reader. Dose effect curves and IC50 values were calculated using GraphPad Prism software.

[2] = test system: resting human T lymphocytes; test: as above; type: cell-based
Experimental: as §1

[3] = test system: Normal human T cells; test: ADCC, flow cytometry-based assay with NK effector cells; type: cell-based; conditions: NK effector to target 10:1, 4 hours
Experimental: A flow cytometry-based assay was used to measure ADCC activity on normal human T cells. PKH2-labeled normal human T cell targets were bound with titrations of antibody (0.1 ng/mL-10 μg/mL) and then incubated with effector NK cells at an effector to target ratio of 10:1 for 4 hours at 37° C., 5% CO2. Viability was determined by 7-AAD incorporation as measured on the FACsCalibur flow cytometer (BD BioSciences, San Jose, Calif.).

[4] = test system: Normal human T cells; test: Complement-dependent cytotoxicity (CDC), Sytox Green; type: cell-based; conditions: 0.02-50 μg/mL, human serum, 2 hours
Experimental: (§2) Complement-Dependent Cytotoxicity (CDC): Normal human T cells (All Cells, Alameda, Calif.) or cancer cell lines (ATCC, Manassas, Va.) were labelledlabeled with 5 μM Sytox Green (Life Technologies, Grand Island, N.Y.), then bound with serial a serial dose titrations of anti-human NTB-A h20F3 antibody or PBD dimer ADCies (0.02-50 μg/mL) in RPMI1640 media+1020% human serum (Complement Technology, Tyler, TX or Solomon Park Research Laboratories, Kirkland, Wash. Cells were incubated at 37° C., 5% CO2 for 2 hours, and fluorescence from lysed cells was measured with an Envision plate reader (Perkin Elmer, Waltham, Mass.). Data was expressed as a percentage of maximum cell lysis determined with a positive control of 1% TritonX-100-treated cells (Sigma, ST. Louis, Mo.).
(§3) Three cell types were used for analysis: normal human T cells, WIL2-S cells, and Raji cells. Expression of relevant receptors on each cell type is found in Table 7 and is indicated as number of receptor per cell.

[5] = test system: Normal human T cells; test: ADCP with monocyte-derived macrophages; type: cell-based; conditions: dilution series starting at 2 μg/mL
Experimental: (§4) To assess NTB-A mediated ADCP activity, normal T lymphocytes or tumor cells were labeled with the red fluorescent membrane dye, PKH26, then labeled with antibody or ADC in a 5-point, 10-fold dilution series starting at 2 μg/mL. Cells were then incubated for 30 minutes on ice and washed twice with PBS. Cells were mixed with monocyte-derived macrophages for one hour at 37° C. The cell mixture was then stained with Alexa Fluor 488-conjugated murine anti-CD11b to label macrophages and analyzed by flow cytometry to detect PKH26+CD11b+ double-labeled fluorescent cells. Phagocytic activity was calculated as (percent PKH26+CD11b+)/(percent CD11b+cells) multiplied by one hundred.

[6] = test system: WIL2-S cell line; test: ADCC, chromium-51 release with NK effector cells; type: cell-based; conditions: NK effector to target 10:1, 4 hours
Experimental: Antibody-Dependent Cellular Cytotoxicity (ADCC) Activity Assay: ADCC cytotoxic activity was measured by chromium-51 release in which effector natural killer (NK) cells kill (lyse) target cells via binding to the antibody or ADC on the target cells. WIL2-S cells were labeled with chromium-51, bound with antibody (0.1 ng/mL-10 μg/mL), and then incubated with NK cells at an effector to target ratio of 10:1 for 4 hours at 37° C., 5% CO2. Supernatant was removed to a filter plate and chromium-51 counts were measured with a TopCount (Perkin Elmer, Waltham, Mass.). Data was expressed as a percentage of maximum specific cell lysis determined with a positive control of 1% TritonX-100-treated cells (Sigma, St. Louis, Mo.).

[7] = test system: Raji cell line; test: Complement-dependent cytotoxicity (CDC), Sytox Green; type: cell-based; conditions: 0.02-50 μg/mL, human serum, 2 hours
Experimental: as §2, §3

[8] = test system: WIL2-S cell line; test: as above; type: cell-based; conditions: 0.02-50 μg/mL, human serum, 2 hours
Experimental: as §2, §3

[9] = test system: Raji cell line; test: ADCP with monocyte-derived macrophages; type: cell-based; conditions: dilution series starting at 2 μg/mL
Experimental: as §4

[10] = test system: WIL2-S cell line; test: ADCP with monocyte-derived macrophages; type: cell-based; conditions: dilution series starting at 2 μg/mL
Experimental: as §4

[11] = test system: cynomolgus-NTB-A; test: Binding to 293-F17 cells overexpressing cynomolgus-NTB-A, flow cytometry; conditions: 293-F17/cynomolgus-NTB-A cells; 20 μg/mL antibody
Chain of cynomolgus-NTB-A (as listed by the source): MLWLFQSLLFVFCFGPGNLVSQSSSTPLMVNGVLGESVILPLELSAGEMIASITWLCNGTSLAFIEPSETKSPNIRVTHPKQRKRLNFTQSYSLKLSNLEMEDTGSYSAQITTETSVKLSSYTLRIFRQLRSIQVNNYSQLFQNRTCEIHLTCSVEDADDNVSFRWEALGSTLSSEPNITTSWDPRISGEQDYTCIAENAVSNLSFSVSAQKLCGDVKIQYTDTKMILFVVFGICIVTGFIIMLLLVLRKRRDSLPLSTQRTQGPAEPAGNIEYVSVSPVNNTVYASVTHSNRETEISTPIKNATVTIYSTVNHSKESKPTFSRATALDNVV
Experimental: (§5) Dose titrations of the anti-human NTB-A antibodies conjugated to Alexa Fluor 647 (, h20F3_HDLD-AF647) were used to generate saturation binding curves. Antigen positive Ramos cells were plated at 1×10^5 cells per well in a 96 well V-bottom plate (Thermo Scientific, Rochester, N.Y.). Three-fold serial dilutions of 2× concentrated antibodies were prepared in FACs buffer (PBS+2% fetal bovine serum) and were added to the cells in duplicate. The antibody solutions were incubated with cells for 1 hour on ice, protected from light. The cells were washed twice with FACs buffer and analyzed on the LSRII flow cytometer (BD BioSciences, San Jose, Calif.). KD values were determined with GraphPad Prism software (La Jolla, Calif.). Anti-human NTB-A antibodies h20F3_HDLD and chimeric 20F3 were tested for binding to 293-F17 cells overexpressing cynomolgus-NTB-A. 293-F17/cynomolgus-NTB-A cells were plated at 5×10^5 cells/well in FACS buffer (PBS+2% fetal bovine serum+0.02% azide) and incubated with 20 μg/mL antibody for 30 minutes on ice. The cells were washed twice and stained with 30 μg/mL goat anti-human IgG-PE (Jackson ImmunoResearch, West Grove, Pa.) for 30 minutes, on ice and protected from light. Cells were again washed twice with FACs buffer. Stained cells were analyzed on the FACs Calibur flow cytometer (BD BioSciences, San Jose, Calif.).

[12] = target: T1, human NTB-A (Homo sapiens, UniProt Q96DU3); test: Saturation binding (Kd) of AF647-labelled antibody on Ramos cells; conditions: 1 hour on ice
T1 construct: endogenous in cells; host or cells: Ramos cells
T1 sequence (Q96DU3 22-332): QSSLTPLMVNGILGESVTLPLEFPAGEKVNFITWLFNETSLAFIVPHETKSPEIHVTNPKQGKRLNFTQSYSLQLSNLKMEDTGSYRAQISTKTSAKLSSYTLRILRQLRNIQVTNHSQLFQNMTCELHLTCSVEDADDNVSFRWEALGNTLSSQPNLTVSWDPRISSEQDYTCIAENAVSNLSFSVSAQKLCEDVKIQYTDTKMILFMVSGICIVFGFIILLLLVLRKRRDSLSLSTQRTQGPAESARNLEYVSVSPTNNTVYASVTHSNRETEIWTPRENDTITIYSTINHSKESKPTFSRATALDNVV
Experimental: as §5

[13] = Donor 1, B cell, NTB-A receptor # 6,811
[14] = Donor 2, B cell, NTB-A receptor # 11,037
[15] = Donor 3, B cell, NTB-A receptor # 8,771
[16] = Donor 4, T cell, NTB-A receptor # 5,547
[17] = Donor 5, T cell, NTB-A receptor # 7,979
[18] = Donor 6, T cell, NTB-A receptor # 5,522

## CC[C@H](C)[C@@H]([C@@H](CC(=O)N1CCC[C@H]1[C@H](OC)[C@@H](C)C(=O)N[C@H](C)[C@@H](O)c1ccccc1)OC)N(C)C(=O)[C@@H](NC(=O)[C@@H](NC)C(C)C)C(C)C [Free MMAE, monomethyl auristatin E, reference compound] (H-[NMeV]V[Dil][Dolaproine]-X1)
[1]; Donor 1, B cell, NTB-A receptor # 6,811, free drug, read-out: IC50
  IC50: 3 nM
[1]; Donor 2, B cell, NTB-A receptor # 11,037, free drug, read-out: IC50
  IC50: 2 nM
[1]; Donor 3, B cell, NTB-A receptor # 8,771, free drug, read-out: IC50
  IC50: 5 nM
[2]; Donor 4, T cell, NTB-A receptor # 5,547, free drug, read-out: IC50
  IC50: > 1000 nM
[2]; Donor 5, T cell, NTB-A receptor # 7,979, free drug, read-out: IC50
  IC50: > 1000 nM
[2]; Donor 6, T cell, NTB-A receptor # 5,522, free drug, read-out: IC50
  IC50: > 1000 nM

## Campath: anti-CD52 antibody control [reference compound]
[3]
  ADCC Maximum % Specific Cell Lysis: 60 ± 3.5%
[4]
  CDC Maximum % Specific Cell Lysis: 108 ± 5.2%
[5]
  ADCP Maximum % Phagocytosis: 57%

## Rituximab: anti-CD20 antibody control [reference compound]
[6]
  ADCC Maximum % Specific Cell Lysis: 42 ± 6.0%
[7]
  CDC Maximum % Specific Cell Lysis: 45 ± 5.7%
[8]
  CDC Maximum % Specific Cell Lysis: 66 ± 1.4%
[9]
  ADCP Maximum % Phagocytosis: 57%
[10]
  ADCP Maximum % Phagocytosis: 56%

B1: c20F3-1910(2) (conjugate)
VH: QIQLVQSGPELKKPGETVKISCKASGYTFTNYGMNWVKQAPGKDLKWMGWINTYSGEPRYADDFKGRFAFSLEKSANTAYLQINNLKNEDMATYFCARDYGRWYFDVWGTGTTVTVSS
VL: QIVLSQSPAILSASPGEKVTMTCRASSSVSHMHWYQQKPGSSPKPWIYATSNLASGVPARFSGSGSGTSYSLTISRVEAEDAATYYCQQWSSTPRTFGGGTKLEIKR
[1]; [13]
  IC50: 1,468 ng/mL
[1]; [14]
  IC50: 1,270 ng/mL
[1]; [15]
  IC50: 3,421 ng/mL
[1]
  ADC concentration with cytotoxic effect on resting B lymphocytes: > 1,000 ng/mL
[2]; [16]
  IC50: >10,000 ng/mL
[2]; [17]
  IC50: >10,000 ng/mL
[2]; [18]
  IC50: >10,000 ng/mL

B2: chimeric: chimeric form of the 20F3 anti-NTB-A antibody (antibody, V domains shown)
VH: B1 VH
VL: B1 VL
[11]
  Cyno binding: positive

B3: c20F3-vcMMAE(4): chimeric 20F3 vcMMAE auristatin ADC, drug load 4 (conjugate)
VH: B1 VH
VL: B1 VL
modifications: non-natural residues
[1]; [13]
  IC50: >10,000 ng/mL
[1]; [14]
  IC50: >10,000 ng/mL
[1]; [15]
  IC50: >10,000 ng/mL
[1]
  ADC concentration with cytotoxic effect on resting B lymphocytes: no cytotoxic effect
[2]; [16]
  IC50: >10,000 ng/mL
[2]; [17]
  IC50: >10,000 ng/mL
[2]; [18]
  IC50: >10,000 ng/mL

B4: HDLD: humanized 20F3: HD (SEQ ID NO:8) with LD (SEQ ID NO:18); preferred variant (antibody, V domains shown)
VH: QIQLVQSGSELKKPGASVKVSCKASGYTFTNYGMNWVRQAPGQDLKWMGWINTYSGEPRYADDFKGRFVFSLDKSVNTAYLQISSLKAEDTAVYYCARDYGRWYFDVWGQGTTVTVSS
VL: QIVLSQSPATLSLSPGERATMSCRASSSVSHMHWYQQKPGQAPRPWIYATSNLASGVPARFSGSGSGTDYTLTISSLEPEDFAVYYCQQWSSTPRTFGGGTKVEIKR
modifications: mature heavy chain variable region of humanized 20F3 HD; mature light chain variable region of humanized 20F3 LD
notes: preferred variant
[12]
  Kd: ~2 nM
[11]
  Cyno binding: retained binding; also recorded: positive

B5: h20F3wt: humanized 20F3 HDLD antibody with wild-type IgG1 (antibody, V domains shown)
VH: B4 VH
VL: B4 VL
[6]
  ADCC Maximum % Specific Cell Lysis: 21 ± 0.6%
[3]
  ADCC Maximum % Specific Cell Lysis: 38 ± 0.8%
[4]
  CDC Maximum % Specific Cell Lysis: 1.3 ± 2.8%
[7]
  CDC Maximum % Specific Cell Lysis: 2.1 ± 0.6%
[8]
  CDC Maximum % Specific Cell Lysis: 0.0 ± 0.0%
